In US20060154864, “Transcript factor and an Akt substrate related to transcriptional action of insulin and applications of same” (Emory University, published 2006):

What was measured:
[1] = system: IRE-BP1 C-terminal fragment (3.4-kb cDNA) (Rattus norvegicus); assay: cell_activity
[2] = biological target: NFkB p50 (UniProt P19838 P19838:1-433); assay: EMSA; supershifted by p50 antibody; details: tags: E. coli-expressed; chain copies: 2; label: 32P
Chain of NFkB p50 (P19838 1-433, one chain of several): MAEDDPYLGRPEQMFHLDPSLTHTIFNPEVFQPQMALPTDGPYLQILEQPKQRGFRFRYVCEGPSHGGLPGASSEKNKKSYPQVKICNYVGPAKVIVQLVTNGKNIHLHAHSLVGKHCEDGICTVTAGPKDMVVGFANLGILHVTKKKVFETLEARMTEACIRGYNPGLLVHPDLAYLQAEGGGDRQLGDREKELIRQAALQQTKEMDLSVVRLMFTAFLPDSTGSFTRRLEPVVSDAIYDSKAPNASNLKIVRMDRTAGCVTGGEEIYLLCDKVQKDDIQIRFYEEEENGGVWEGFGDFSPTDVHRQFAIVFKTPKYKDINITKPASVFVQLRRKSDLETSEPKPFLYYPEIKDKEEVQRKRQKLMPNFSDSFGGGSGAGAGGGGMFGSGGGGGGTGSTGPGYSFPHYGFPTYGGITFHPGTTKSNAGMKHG

## AATTCAAGGGTATCCAGGAAAGTCTCCTTCAAG (double strand) [IGFBP-3 IRE]
[1]; COS-7 luciferase, 2-fold on control vector
  activity: 14 fold

## GTTTGTTTTGCTAGT (double strand) [IGFBP-1 IRE]
[1]; with insulin, vs 24.7% vector alone, no basal effect, SEQ 50 inferred
  activity: 63.2 % decrease

## GCCTCATTATTCCTGCCCACCAAT (double strand) [IGF-1 IRE]
[1]; COS-7 luciferase, basal, 3.5-fold with insulin
  activity: 4.7 fold

B1: IGFBP-3 IRE (dsDNA)
DNA 1: AATTCAAGGGTATCCAGGAAAGTCTCCTTCAAG
DNA 2: CTTGAAGGAGACTTTCCTGGATACCCTTGAATT
[2]
  binding result: binds
